{
  "source": "patent US20200230115A1",
  "about": "“METHODS OF TREATING INFLUENZA-ASSOCIATED VIRAL PNEUMONIA” (priority 2017, published 2020)",
  "design_in_all_cases": "species or system DBA/2J mice",
  "details_in_all_cases": "mouse, in vivo",
  "key": {"IAV (WSNHAnc-Asp225Gly) [1]": {"system": "IAV (WSNHAnc-Asp225Gly)"}, "IAV (WSNHAnc-Asp225Gly) [2]": {"system": "IAV (WSNHAnc-Asp225Gly)", "remark": "listed apart in the source"}, "IAV (WSNHAnc-Asp225Gly) [3]": {"system": "IAV (WSNHAnc-Asp225Gly)", "remark": "listed apart in the source"}},
  "note": "“Also recorded” adds a separate entry of the source.",
  "data": [
    {"molecule": "KGF: keratinocyte growth factor, a potent pulmonary epithelial mitogen; cognate receptor FGFR2 (protein, UniProt P21781 32-194, looked up) Fibroblast growth factor 7: CNDMTPEQMATNVNCSSPERHTRSYDYMEGGDIRVRRLFCRTQWYLRIDKRGKVKGTQEMKNNYNIMEIRTVAVGIVAIKGVESEFYLAMNKEGKLYAKKECNEDCNFKELILENHYNTYASAKWTHNGGEMFVALNQKGIPVRGKKTKKEQKTAHFLPMAIT", "values": [
      {"measurement": "KGF dose of maximal effect on IAV-induced mortality", "setting": "IAV (WSNHAnc-Asp225Gly) [1]", "value": 5, "unit": "mg/kg"},
      {"measurement": "mortality after KGF pretreatment", "setting": "IAV (WSNHAnc-Asp225Gly) [1]", "value": "did not enhance mortality"},
      {"measurement": "mortality, dose response", "setting": "IAV (WSNHAnc-Asp225Gly) [1]", "value": "dose-dependent acceleration of mortality"},
      {"measurement": "shortening of survival", "setting": "IAV (WSNHAnc-Asp225Gly) [1]", "value": 3, "unit": "days"},
      {"measurement": "pulmonary viral burden vs PBS/IAV controls", "setting": "IAV (WSNHAnc-Asp225Gly) [2]", "value": "three- to fivefold greater; also recorded: No difference in viral burden"},
      {"measurement": "IAV-NP staining of lung sections", "setting": "IAV (WSNHAnc-Asp225Gly) [3]", "value": "substantially more intense; also recorded: markedly more intense and diffuse"},
      {"measurement": "blinded semiquantitative analysis of IAV-NP staining", "setting": "IAV (WSNHAnc-Asp225Gly) [3]", "value": "KGF-induced increase in viral burden and acceleration of spread"}
    ]}
  ]
}
